Reference: publication doi:10.1101/385401 (bioRxiv, 2018)
Numbering of substitutions follows the chain as printed. Names may count otherwise. Like-named read-outs stand apart in the source and are kept apart here.

How the values were obtained:
crystal structure = target: the molecule itself; experiment: crystal structure
[1] = target: the molecule itself

B1: Escherichia coli (Ec) dGTPase, wild type (enzyme, UniProt P15723 1-505, looked up)
chain: MAQIDFRKKINWHRRYRSPQGVKTEHEILRIFESDRGRIINSPAIRRLQQKTQVFPLERNAAVRTRLTHSMEVQQVGRYIAKEILSRLKELKLLEAYGLDELTGPFESIVEMSCLMHDIGNPPFGHFGEAAINDWFRQRLHPEDAESQPLTDDRCSVAALRLRDGEEPLNELRRKIRQDLCHFEGNAQGIRLVHTLMRMNLTWAQVGGILKYTRPAWWRGETPETHHYLMKKPGYYLSEEAYIARLRKELNLALYSRFPLTWIMEAADDISYCVADLEDAVEKRIFTVEQLYHHLHEAWGQHEKGSLFSLVVENAWEKSRSNSLSRSTEDQFFMYLRVNTLNKLVPYAAQRFIDNLPAIFAGTFNHALLEDASECSDLLKLYKNVAVKHVFSHPDVERLELQGYRVISGLLEIYRPLLSLSLSDFTELVEKERVKRFPIESRLFHKLSTRHRLAYVEAVSKLPSDSPEFPLWEYYYRCRLLQDYISGMTDLYAWDEYRRLMAVEQ
stoichiometry N (crystal structure): 6

B2: Ec-dGTPase Y272A variant (enzyme, Escherichia coli, UniProt P15723 1-505, looked up)
chain: B1 chain with Y272A
stoichiometry N [1]: 6

B3: Ec-dGTPase H126A variant (enzyme, Escherichia coli, UniProt P15723 1-505, looked up)
chain: B1 chain with H126A
stoichiometry N [1]: 6

B4: selenium methionine labelled Ec-dGTPase (enzyme, Escherichia coli, UniProt P15723 1-505, looked up)
chain: B1 chain
modifications: selenium methionine labelled
stoichiometry N (crystal structure): 6

B5: Ec-dGTPase E129A variant (enzyme, Escherichia coli, UniProt P15723 1-505, looked up)
chain: B1 chain with E129A
stoichiometry N [1]: 6
